Assays:
[1] = target: recombinant glutathione S-transferase (GST) NudE (UniProt Q9CZA6); assay: pull-down; 1 ug/ul GST-NudE or GST-CC1 with glutathione agarose 4B and pre-cleared whole brain lysate of P0 wild-type or Loa/Loa mice; phosphate-glutamate buffer (10 mM sodium phosphate, 100 mM sodium glutamate, pH 7.0, 1 mM MgSO4, 1 mM EDTA, 1 mM DTT, 0.2% NP-40), 4°C, 2 hours; western blot of supernatants and pellets
[2] = target: GST-tagged CC1 fragment from the dynactin subunit p150Glued; assay: as above

UniProt Q9CZA6, sequence (Q9CZA6 whole entry, the tested form may be a part): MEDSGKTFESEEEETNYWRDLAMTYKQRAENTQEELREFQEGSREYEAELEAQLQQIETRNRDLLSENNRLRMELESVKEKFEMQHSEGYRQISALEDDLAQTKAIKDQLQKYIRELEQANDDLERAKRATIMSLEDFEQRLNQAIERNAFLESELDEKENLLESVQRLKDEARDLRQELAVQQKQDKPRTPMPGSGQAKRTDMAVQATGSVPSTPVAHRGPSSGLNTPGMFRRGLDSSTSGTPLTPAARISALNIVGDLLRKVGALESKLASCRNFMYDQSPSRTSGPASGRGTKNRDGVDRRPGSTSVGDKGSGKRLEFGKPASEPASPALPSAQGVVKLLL

| Substance | percent of heavy chain in the NudE pellet [1] [%] | percent of heavy chain in the pellet [2] [%] |
| --- | --- | --- |
| wild-type cytoplasmic dynein (from UniProt Q9JHU4 1-4644; O88485 1-628) (complex) | 66.2 | 45.3 |
| Loa/Loa mutant cytoplasmic dynein (from UniProt Q9JHU4 1-4644; O88485 1-628) (complex) | 57.7 | 40.7 |
